B1: FCHO1 (parent)
chain: DKLALCHLELTRKLQDLIKDVLRY
B2: TRIB1 (parent)
chain: EIGTSDQIVPEYQEDSDISSFFC

Variants of: B1
Experiment: protein stability index of a GFP-peptide fusion (GPS, HEK-293T) (PSI 1-6); higher = more stable
Conditions: c terminus: a fixed tail appended
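Note: lentivirally expressed fusions sorted by FACS into six bins by GFP to DsRed ratio, PSI derived from sequencing read proportions per bin multiplied by bin number.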

In order of rising protein stability index:
1. C6D  1.15
2. K2N  1.26
3. H7W  1.38
4. K2P  1.39
5. D1W  1.41
6. K2A  1.43
7. L3A  1.44
8. H7I  1.49
9. H7L  1.56
10. A4G  1.6
11. L5E  1.62
12. L5T  1.72
13. E9S  1.77
14. L8I  1.79
15. L3S  1.79
16. H7S  1.81
17. A4S  1.81
18. L3T  1.81
19. L5P  1.82
20. H7A  1.84
21. L5I  1.94
22. K2T  1.97
23. A4L  1.98
24. L8W  2
25. L5Y  2.01
26. A4F  2.01
27. C6W  2.01
28. C6E  2.04
29. L3D  2.09
30. H7C  2.12
31. L3H  2.12
32. D1E  2.15
33. E9H  2.19
34. K2S  2.21
35. L3K  2.23
36. L3N  2.25
37. K2E  2.28
38. L3E  2.3
39. A4P  2.33
40. L8N  2.36
41. D1K  2.37
42. C6P  2.37
43. H7F  2.4
44. K2Q  2.45
45. D1S  2.45
46. L3C  2.51
47. A4C  2.52
48. C6R  2.52
49. C6V  2.53
50. K2I  2.57
51. E9F  2.62
52. E9A  2.63
53. L8D  2.63
54. D1Y  2.63
55. K2L  2.64
56. C6A  2.64
57. L8F  2.65
58. H7M  2.67
59. E9I  2.67
60. K2H  2.72
61. E9L  2.72
62. L8K  2.72
63. E9W  2.73
64. D1T  2.77
65. E9G  2.87
66. H7Q  2.88
67. L8G  2.92
68. H7R  2.93
69. L3F  2.93
70. L5H  2.98
71. C6T  2.99
72. C6K  3
73. H7N  3.01
74. C6M  3.01
75. K2D  3.04
76. E9K  3.04
77. L3V  3.04
78. H7D  3.07
79. C6Q  3.1
80. D1V  3.12
81. C6S  3.13
82. L5S  3.18
83. H7T  3.2
84. E9Q  3.2
85. A4I  3.21
86. A4W  3.22
87. C6N  3.3
88. E9P  3.31
89. A4Q  3.43
90. D1F  3.44
91. D1R  3.61
92. K2M  3.83
93. K2C  3.86
94. L8H  3.96
95. D1N  4.01
96. D1P  4.01
97. L5W  4.03
98. E9V  4.2
99. D1Q  4.47
100. D1G  5.1
101. E9N  5.51

Variants of: B2
Experiment: as above
Conditions: c terminus: native

In order of falling protein stability index:
1. F22K  5.29
2. F22Q  4.82
3. F22G  4.79
4. F21T  4.78
5. F21N  4.7
6. F22R  4.7
7. F21K  4.67
8. F21P  4.6
9. F21H  4.58
10. F22P  4.55
11. F22N  4.54
12. C23K  4.49
13. F22T  4.48
14. F22S  4.48
15. F21E  4.43
16. F22H  4.3
17. F22E  4.3
18. F21Q  4.23
19. C23R  4.18
20. F22A  4.11
21. F21S  4.08
22. F22I  4.03
23. F21A  3.98
24. F21G  3.97
25. F21D  3.9
26. F21V  3.89
27. S20R  3.89
28. F22V  3.88
29. F22D  3.86
30. F21M  3.85
31. C23Q  3.76
32. C23N  3.73
33. C23G  3.67
34. C23H  3.65
35. F21R  3.64
36. F21I  3.59
37. F21C  3.5
38. F21L  3.45
39. F22C  3.45
40. S20P  3.44
41. C23P  3.44
42. F22L  3.36
43. S20Q  3.21
44. F22M  3.16
45. C23A  3.08
46. S20T  3.07
47. C23E  2.94
48. C23L  2.9
49. F21W  2.89
50. S20N  2.83
51. C23S  2.8
52. C23V  2.77
53. C23I  2.67
54. F21Y  2.64
55. S20M  2.62
56. S20V  2.53
57. C23D  2.51
58. S20Y  2.42
59. S20W  2.35
60. C23F  2.29
61. C23Y  2.26
62. C23T  2.1
63. F22Y  2.03
64. F22W  1.98
65. C23W  1.95
66. C23M  1.73

Reference: the supplement of paper PMC10567573
